Paper PMC2754608, “Toll-Like Receptor 4 Decoy, TOY, Attenuates Gram-Negative Bacterial Sepsis” (PLoS ONE, 2009)

B1: myeloid differentiation protein-2 (MD-2) (natural protein, human, UniProt Q9Y6Y9 19-160, looked up)
chain: QKQYWVCNSSDASISYTYCDKMQYPISINVNPCIELKRSKGLLHIFYIPRRDLKQLYFNLYITVNTMNLPKRKEVICRGSDDDYSFCRALKGETVNTTISFSFKGIKFSKGKYKCVVEAISGSPEEMLFCLEFVILHQPNSN
notes: also called hMD-2

Experiments:
[1] = molecular target: T1, TLR4 full-length ectodomain fused to IgG-Fc (TFE) (human, UniProt O00206 27-631); assay: SPR; BIAcore 3000; TFE, TOY3 or TOY8 (1 µg) amine-coupled (NHS/EDC) on a CM5 chip at about 2,000 RU; BSA on a control portion of the chip; recombinant MD-2 flowed over; nonlinear curve fitting with BIAEVALUATION; settings: both partners purified
T1 construct: Toll-like receptor 4 (TLR4), human, full-length ectodomain, amino acid residues 27-631; Disulfide-linked dimer through the Fc domain (non-reducing SDS-PAGE); N-glycosylated; source: recombinant CHO cells (dhfr-deficient, MTX amplification), secreted, purified (Protein-A sepharose); not shown: Fc (human IgG1), C-terminal, kept

[2] = molecular target: B1; assay: as above; settings: both partners purified

Kd [1] [nM] | Kd [2] [nM] | Binder
~81 |  | B1
 | ~56 | TLR4 decoy receptor-8 (TOY8) (Fc fusion, N-glycosylated (CHO). TLR4 27-527 limits are printed; VLRB.61 fragment limits are only in a figure, so taken from the TV8 hybrid crystal construct (PDB 2Z63, recalled from memory). Hagfish species …) EPCVEVVPNITYQCMELNFYKIPDNLPFSTKNLDLSFNPLRHLGSYSFFSFPELQVLDLSRCEIQTIEDGAYQSLSHLSTLILTGNPIQSLALGAFSGLSSLQKLVAVETNLASLENFPIGHLKTLKELNVAHNLIQSFKLPEYFSNLTNLEHLDLSSNKIQSIYCTDLRVLHQMPLLNLSLDLSLNPMNFIQPGAFKEIRLHKLTLRNNFDSLNVMKTCIQGLAGLEVHRLVLGEFRNEGNLEKFDKSALEGLCNLTIEEFRLAYLDYYLDDIIDLFNCLTNVSSFSLVSVTIERVKDFSYNFGWQHLELVNCKFGQFPTLKLKSLKRLTFTSNKGGNAFSEVDLPSLEFLDLSRNGLSFKGCCSQSDFGTTSLKYLDLSFNGVITMSSNFLGLEQLEHLDFQHSNLKQMSEFSVFLSLRNLIYLDISHTHTRVAFNGIFNGLSSLEVLKMAGNSFQENFLPDIFTELRNLTFLDLSQCQLEQLSPTAFNSLSSLQVLNMASNQLKSVPDGIFDRLTSLQKIWLHTNPWDCSCPRIDYLSRWLNKNSQKEQGSAKCSGSGKPVRSIICP
 | ~76 | TLR4 decoy receptor-3 (TOY3) (Fc fusion, N-glycosylated (CHO). TLR4 27-227 limits are printed; VLRB.61 fragment limits are only in a figure, so taken from the TV3 hybrid crystal construct (PDB 2Z62, recalled from memory). Hagfish species …) EPCVEVVPNITYQCMELNFYKIPDNLPFSTKNLDLSFNPLRHLGSYSFFSFPELQVLDLSRCEIQTIEDGAYQSLSHLSTLILTGNPIQSLALGAFSGLSSLQKLVAVETNLASLENFPIGHLKTLKELNVAHNLIQSFKLPEYFSNLTNLEHLDLSSNKIQSIYCTDLRVLHQMPLLNLSLDLSLNPMNFIQPGAFKEIRLKELALDTNQLKSVPDGIFDRLTSLQKIWLHTNPWDCSCPRIDYLSRWLNKNSQKEQGSAKCSGSGKPVRSIICP
